Source: patent US20160304625A1 (WELT BIO MOLECULAR PHARMACEUTICAL, published 2016)

Assays:
[1] = target: human membrane bound IgM with kappa light chain (mIgM-kappa) (human, UniProt P01871 1-474); assay: cell-based or functional assay
[2] = target: T1, mIgG proximal domain peptide ELQLEESCAEAQDGELDG (human); assay: competition ELISA, block 'Blocked by mAb 1', mIgG-PD
T1 construct: also called mIgG-PD; 18-mer mIgG
T1 peptide: ELQLEESCAEAQDGELDG

Chain of human membrane bound IgM with kappa light chain (mIgM-kappa) (P01871 whole entry, the tested form may be a part): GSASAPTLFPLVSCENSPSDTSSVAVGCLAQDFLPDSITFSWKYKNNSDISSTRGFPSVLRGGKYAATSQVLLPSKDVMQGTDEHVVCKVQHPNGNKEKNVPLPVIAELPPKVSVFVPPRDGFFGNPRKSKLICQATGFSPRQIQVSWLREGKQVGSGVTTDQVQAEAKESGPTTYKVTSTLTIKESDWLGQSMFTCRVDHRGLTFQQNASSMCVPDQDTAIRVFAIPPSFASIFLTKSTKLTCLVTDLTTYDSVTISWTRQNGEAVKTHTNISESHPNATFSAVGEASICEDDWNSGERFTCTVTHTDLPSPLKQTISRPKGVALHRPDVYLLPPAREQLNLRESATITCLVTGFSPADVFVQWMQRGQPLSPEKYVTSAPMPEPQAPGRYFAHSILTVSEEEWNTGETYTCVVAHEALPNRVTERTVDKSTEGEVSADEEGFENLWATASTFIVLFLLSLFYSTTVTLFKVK

- clonogenic capacity of CA 46 [1]: 100 fold
- binding result [2]: no binding
B1: monoclonal antibody mAb4-2b (antibody, mouse IgG1, V domains shown)
VH: EVQLEESGAELVKPGASLKLSCKASGYTFTSYWMNWVKQRPGQGLEWIGIIHPNSGSTNYNEKFKTKATLTVDKSSSTAYMQLSSLTSEDSAVYYCARTRGNYGMDYWGQGTSVTVSS
VL: DIVMTQSHKFMSTSVGDRVSITCKASQDVSTAVAWYQQKPGQSPTLLIYSASYRNTGVPDRFTGSGSGTDFTFTISSVQAEDLAVYYCQQHFSIPPLTFGAGTKLELKR
